Assay results reported in patent publication US20220290139A1, “METHODS AND COMPOSITIONS FOR GENE SPECIFIC DEMETHYLATION AND ACTIVATION” (NATIONAL UNIVERSITY OF SINGAPORE, priority 2019, published 2022).
Entries after “also recorded” stand apart in the source; their conditions may differ.

Key:
P16 = experiment: p16 mRNA qRT-PCR after transient transfection of sgRNA/MsgDiR with or without dCas9; format: cell-based, human; conditions: SNU-398, 72 hours; for P16 mRNA expression (qRT-PCR): transient co-transfection with dCas9, guide G2
Source text: (§1) In this example, a modified CRISPR/dCAS9 system for gene activation and demethylation was developed and tested with P16. The DiR localized in CEBPA locus (ecCEBPA) is repurposed to other specific gene target(s) for demethylation and reactivation. The RNA stem-loops (R2 and R5), interacting with DNMT1(1), were fused to the tetra- and stem-loop 2 in a single guide RNA (sgRNA) scaffold to obtain a modified sgRNA (MsgRNA, sgDiR in FIG. 1, also referred to as MsgDiR6 in Example 3 below). The hepatocellular carcinoma (HCC) cell line SNU-398, in which P16 is silenced by promoter methylation, was transiently transfected with dCas9 plasmid and one MsgRNA (using guide G2: […] (SEQ ID NO: 29), MsgRNA with guide G2 is shown as G2sgDiR in FIG. 1, as targeting portion) targeting the template strand of P16 promoter.
This study transiently transfected dCas9 plasmid together with one MsgRNA plasmid (G2sgDiR) to SNU398 cells, culturing three days without selection for the positively transfected cells. Guide G2 targets one site in the template strand (also known as antisense strand) of P16 promoter; and was initially chosen for two reasons: 1) the sequence is one of the three guides used in a P16 gene study (3), and 2) G2 targets the P16 promoter region, the methylation and demethylation of which has been considered as an important factor for gene regulation.
All measurements were performed in triplicate.
(§2) SNU-398 cells were seeded at a density of […] in 6-well plates 24 hours before transfection employing jetPRIME transfection reagent (Polyplus Transfection) as described by the manufacturer. 2 μg mix of sgRNA/MsgDiR and dCas9 plasmid(s) (sgRNA/MsgDiR: dCas9 molar ratio 1:1) were transfected into each well of cells. The culture medium was changed 12 hours after transfection. Alternatively, the Neon™ Transfection System (Thermo Fisher) was used for cell electroporation according to the manufacturer's instructions. The same plasmid amount and ratios were used in the Neon as in the jetPRIME transfection. The parameters used for the highest SNU-398 transfection efficiency were 0.7 to 1.5 million cells in 100 μl reagent, voltage 1550 V, width 35 ms and 1 pulse. The culture medium was changed 24 hours after transfection.

P16 promoter = experiment: p16 methylation (MSP/COBRA) after transient transfection; format: cell-based, human; conditions: SNU-398, transient co-transfection with dCas9, guide G2, 72 hours
Source text: as §1, §2
The methylation profiles of the p16 gene locus or the whole genome were assessed by bisulfite-conversion based assays. For DNA bisulfite conversion, 1.6-1.8 μg of genomic DNA of each sample was converted by the EpiTect Bisulfite Kit (Qiagen) following the manufacturer's instructions.
For Methylation-Specific PCR (MSP), both methylation specific primers and unmethylation specific primers of p16 were used for the PCR of the same bisulfite converted sample (the transient transfection samples in the sgRNA and MsgDiR1-8 screening assay). […] 7 min, 4° C. hold. […] 7 min, 4° C. hold. […] 7 min, 4° C. hold.

Molecule | P16 mRNA expression (qRT-PCR) (P16) | P16 mRNA expression (qRT-PCR) (P16; listed as CRISPR-R2R5 system) | P16 DNA methylation / demethylation (P16 promoter) | P16 DNA methylation / demethylation (P16 promoter; listed as CRISPR-R2R5 system) | P16 mRNA expression (qRT-PCR) (P16; listed as sgDiR (G2)) | p16 activation in absence of dCas9 (P16; transient transfection without dCas9)
MsgRNA: Example 1 modified sgRNA, guide G2, R2 in tetra-loop and R5 in stem loop 2, SEQ ID NO: 15; used with dCas9 (nucleic acid, MsgRNA, used with dCas9) guide: GCACUCAAACACGCCUUUGCGUUUUAGAGCUACCCGGGACGCGGGUCCGGGACAGUAGCAAGUUAAAAUAAGGCUAGUCCGUUAUCAACUUCUGAGGCCUUGGCGAGGCUUCUAAGUGGCACCGAGUCGGUGCUUUUUU | two-fold increase | moderate gene activation | loss of DNA methylation | demethylation |  | 
MsgDiR6: R2-R5 modified sgRNA scaffold (CRISPR-DiR), SEQ ID NO: 53; tested with guide G2 (nucleic acid, MsgDiR6 R2-R5 Sequence; (1)..(19) n is a, c, g, or u, tested with guide G2) guide: NNNNNNNNNNNNNNNNNNNGUUUGAGAGCUACCCGGGACGCGGGUCCGGGACAGUAGCAAGUUCAAAUAAGGCUAGUCCGUUAUCAACUUCUGAGGCCUUGGCGAGGCUUCUAAGUGGCACCGAGUCGGUGCUUUUUU | moderate activation of p16; also recorded: moderate gene activation |  | induces P16 demethylation |  | moderate activation | no effects
MsgDiR7: R2-R2 modified sgRNA, SEQ ID NO: 54 (nucleic acid, MsgDiR7 R2-R2 Sequence; (1)..(19) n is a, c, g, or u) guide: NNNNNNNNNNNNNNNNNNNGUUUGAGAGCUACCCGGGACGCGGGUCCGGGACAGUAGCAAGUUCAAAUAAGGCUAGUCCGUUAUCAACUUCCCGGGACGCGGGUCCGGGACAGAAGUGGCACCGAGUCGGUGCUUUUUU |  |  | not effective |  |  | 
